This experiment has as its target α2β1 integrin on K562 cells transfected with the α2 integrin subunit (not stated | human (endogenous in K562)) (UniProt P17301).
Chain of UniProt P17301 (P17301 30-1181, chain 1 of 2): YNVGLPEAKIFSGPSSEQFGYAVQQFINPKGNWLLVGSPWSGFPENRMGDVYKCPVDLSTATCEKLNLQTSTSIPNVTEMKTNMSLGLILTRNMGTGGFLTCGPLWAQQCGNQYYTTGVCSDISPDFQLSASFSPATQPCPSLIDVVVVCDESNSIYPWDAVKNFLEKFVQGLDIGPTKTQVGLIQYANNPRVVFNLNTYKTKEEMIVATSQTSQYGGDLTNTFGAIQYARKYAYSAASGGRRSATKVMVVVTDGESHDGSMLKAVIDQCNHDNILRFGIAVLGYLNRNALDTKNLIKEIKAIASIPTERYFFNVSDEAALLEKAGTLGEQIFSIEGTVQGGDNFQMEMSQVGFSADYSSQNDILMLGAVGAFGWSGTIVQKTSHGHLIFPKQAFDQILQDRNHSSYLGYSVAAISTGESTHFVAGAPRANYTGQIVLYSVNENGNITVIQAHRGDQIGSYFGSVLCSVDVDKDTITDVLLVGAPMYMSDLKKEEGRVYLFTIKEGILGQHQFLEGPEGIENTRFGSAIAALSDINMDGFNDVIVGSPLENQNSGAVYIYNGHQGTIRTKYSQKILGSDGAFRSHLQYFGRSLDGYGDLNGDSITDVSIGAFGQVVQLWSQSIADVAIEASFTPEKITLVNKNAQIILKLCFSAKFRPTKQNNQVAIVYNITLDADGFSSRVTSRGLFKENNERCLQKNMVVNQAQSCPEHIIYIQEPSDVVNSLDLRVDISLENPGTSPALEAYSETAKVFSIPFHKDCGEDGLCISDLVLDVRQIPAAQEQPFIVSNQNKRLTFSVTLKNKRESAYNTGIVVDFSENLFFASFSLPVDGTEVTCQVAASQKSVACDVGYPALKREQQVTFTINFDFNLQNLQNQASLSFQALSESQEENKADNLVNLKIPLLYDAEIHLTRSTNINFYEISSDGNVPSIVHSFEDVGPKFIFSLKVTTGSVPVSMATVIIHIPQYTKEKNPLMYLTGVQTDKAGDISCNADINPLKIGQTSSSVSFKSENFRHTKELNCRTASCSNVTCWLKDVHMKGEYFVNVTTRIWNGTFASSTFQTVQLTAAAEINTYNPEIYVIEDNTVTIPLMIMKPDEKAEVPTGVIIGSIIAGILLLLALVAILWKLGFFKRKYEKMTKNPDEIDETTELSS
Chain of UniProt P17301 (P05556 21-798, chain 2 of 2, further chain): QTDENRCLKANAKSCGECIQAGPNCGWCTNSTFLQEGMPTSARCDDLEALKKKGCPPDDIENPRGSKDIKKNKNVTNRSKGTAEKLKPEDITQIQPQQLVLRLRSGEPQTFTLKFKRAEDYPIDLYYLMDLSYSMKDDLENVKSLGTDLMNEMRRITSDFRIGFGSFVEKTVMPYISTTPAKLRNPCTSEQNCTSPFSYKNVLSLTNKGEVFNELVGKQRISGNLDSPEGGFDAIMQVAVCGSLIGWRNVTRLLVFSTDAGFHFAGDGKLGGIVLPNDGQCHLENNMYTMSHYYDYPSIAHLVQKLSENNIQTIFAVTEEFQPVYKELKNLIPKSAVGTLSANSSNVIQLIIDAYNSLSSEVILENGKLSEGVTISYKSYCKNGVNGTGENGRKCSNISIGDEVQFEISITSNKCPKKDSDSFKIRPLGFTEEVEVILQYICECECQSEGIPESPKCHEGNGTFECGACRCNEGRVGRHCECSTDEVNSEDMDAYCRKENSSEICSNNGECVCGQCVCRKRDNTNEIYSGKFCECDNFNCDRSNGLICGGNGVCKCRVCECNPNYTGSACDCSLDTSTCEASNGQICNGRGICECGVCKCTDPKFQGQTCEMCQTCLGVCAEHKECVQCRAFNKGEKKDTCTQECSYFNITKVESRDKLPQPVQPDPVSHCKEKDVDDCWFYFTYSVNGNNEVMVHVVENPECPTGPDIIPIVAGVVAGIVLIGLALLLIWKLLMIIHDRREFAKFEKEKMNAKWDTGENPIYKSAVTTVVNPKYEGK

“Vixapatin (VP12), C-type lectin-like protein from Vipera xantina palestinae venom (complex)” had an IC50 of inhibition of adhesion of α2K562 transfectants to immobilised collagen I (blocks collagen I with α2β1), dose-response of Vixapatin of 3.2 nM.

These data come from PMC3496993.
